Usually stoichiometry N stands for the number of molecules, sites or subunits per partner or assembly.

The values that follow come from publication PMC9129000, “RADA-dependent branch migration has a predominant role in plant mitochondria and its defect leads to mtDNA instability and cell cycle arrest”.

Data set [1] concerns the target Arabidopsis RADA recombinant protein (His-tagged, WT) (Arabidopsis thaliana). Description: dynamic light scattering; protein fraction of gel filtration peak 2 (the smaller oligomer). Background: SEC sorts molecules by how far they enter the pores of the column.
The target in data set [2] is T1, RADA (Arabidopsis thaliana, UniProt F4K8X8 49-627).
T1 sequence: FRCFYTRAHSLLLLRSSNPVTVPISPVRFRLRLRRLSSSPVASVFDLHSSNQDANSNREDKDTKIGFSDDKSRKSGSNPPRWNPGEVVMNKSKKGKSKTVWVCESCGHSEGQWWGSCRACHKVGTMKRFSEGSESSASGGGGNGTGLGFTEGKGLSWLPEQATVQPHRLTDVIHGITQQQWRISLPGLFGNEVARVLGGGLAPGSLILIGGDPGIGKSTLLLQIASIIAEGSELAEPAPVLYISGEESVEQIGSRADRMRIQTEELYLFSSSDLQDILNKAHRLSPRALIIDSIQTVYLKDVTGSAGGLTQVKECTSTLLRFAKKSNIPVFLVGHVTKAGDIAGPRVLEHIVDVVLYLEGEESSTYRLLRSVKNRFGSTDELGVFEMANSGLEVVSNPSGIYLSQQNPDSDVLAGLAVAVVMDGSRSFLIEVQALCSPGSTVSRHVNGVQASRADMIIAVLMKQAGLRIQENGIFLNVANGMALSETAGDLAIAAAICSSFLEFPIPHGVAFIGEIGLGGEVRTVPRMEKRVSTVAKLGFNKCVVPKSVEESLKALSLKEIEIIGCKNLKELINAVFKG
Put plainly: competition; competes as efficiently as homologous 30-mer; 20 mM Tris-HCl pH 7.5, 50 mM KCl, 5 mM MgCl2, 0.5 mM EDTA, 10% glycerol, 1 mM DTT, protease inhibitors; 20 C, 20 min; 8 or 4.5% PAGE in TBE at 4 C. The conditions noted are these: protein: recombinant; tags: N-terminal His (pET28a); chain copies: 6; single strand.

Data set [3] has as its target T1, RADA. Put plainly: EMSA; probe and homologous competitor; 20 mM Tris-HCl pH 7.5, 50 mM KCl, 5 mM MgCl2, 0.5 mM EDTA, 10% glycerol, 1 mM DTT, protease inhibitors; 20 C, 20 min; 8 or 4.5% PAGE in TBE at 4 C. The conditions noted are these: protein: recombinant; tags: N-terminal His (pET28a); chain copies: 6; label: 5'-32P as probe; single strand. On the technique in general: Mobility shift assays separate free from complexed probe on a gel.

Data set [4] concerns the target T1, RADA. Put plainly: EMSA; 20 mM Tris-HCl pH 7.5, 50 mM KCl, 5 mM MgCl2, 0.5 mM EDTA, 10% glycerol, 1 mM DTT, protease inhibitors; 20 C, 20 min; 8 or 4.5% PAGE in TBE at 4 C. The conditions noted are these: protein: recombinant; tags: N-terminal His (pET28a); chain copies: 6; label: 5'-32P; single strand.

“Arabidopsis RADA recombinant protein (His-tagged, WT) (enzyme)”: the stoichiometry N in data set [1] was found to be 6.
As for TTTTTTTTTTTTTTTTTTTTTTTTTTTTTT (ssDNA) [poly-dT 30-mer], in the data set with RADA [2], the binding result is listed as “binds”.
Turning to AGTCAGTCAGTCAGTCAGTCAGTCAGTCAG (ssDNA) [EMSA 30-mer 7x[AGTC]AG], in the data set with RADA [3], the binding result is reported as “binds”.

B1: EMSA ssDNA (ssDNA)
DNA: GACGCTGCCGAATTCTACCAGTGCCTTGCTAGGACATCTTTGCCCACCTGCAGGTTCACCC
Turning to B1, in the data set with RADA [4], the binding result was “binds”.
